Measured values reported in the supplement of paper PMC10724198.
± gives the standard deviation of the averaged measurements.

What follows are sequences tested on Saccharomyces cerevisiae (assay: protein stability index of tFT-peptide fusion (C-terminal peptide) (PSI (0-1 scale)); higher = more stable (slower turnover)). Conditions: genetic background: wild type; temperature: 30 C.
Protocol: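 MPS profiling in S. cerevisiae of the yeast C-terminome library: the last 12 aa of each annotated ORF are fused to the C-terminus of a sfGFP-mCherry timer, after a GGGS linker. Cells are FACS-sorted into 8 mCherry/sfGFP bins and deep-sequenced. PSI runs from 0 (unstable) to 1 (stable); wild type and das1Δ backgrounds, two technical replicates each.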

Sequence | protein stability index
DFSASSSVEEVK [MFT1 C-terminal 12 aa] | 0.662 ± 0.011
DGTTSKDSEKKK [COA4 C-terminal 12 aa] | 0.648 ± 0.011
DHDVSLEEVINI [MCY1 C-terminal 12 aa] | 0.706 ± 0.02
DIFDPVDFVSFF [OAF3 C-terminal 12 aa] | 0.752 ± 0.034
DILGFKIAPRSA [YGR210C C-terminal 12 aa] | 0.7073 ± 0.0013
DILGSLLAKKRK [MRE11 C-terminal 12 aa] | 0.672 ± 0.022
DILLSCIADLTI [POL2 C-terminal 12 aa] | 0.707 ± 0.054
DISDSEGGLFEC [PCI8 C-terminal 12 aa] | 0.694 ± 0.085
DIYNQLHMFGEK [IGD1 C-terminal 12 aa] | 0.688 ± 0.01
DKEVVYFDEWTI [RPC34 C-terminal 12 aa] | 0.729 ± 0.032
DKLAKLLSLDIH [MSH3 C-terminal 12 aa] | 0.708 ± 0.025
DKVPVHYPPVVE [SYM1 C-terminal 12 aa] | 0.709 ± 0.045
DLAERLAETEIK [RNA1 C-terminal 12 aa] | 0.692 ± 0.024
DLASFIKKSLSS [TML25 C-terminal 12 aa] | 0.734 ± 0.032
DLKIYLQQDESL [YEL023C C-terminal 12 aa] | 0.672 ± 0.015
DNPETKNGRENK [ECM10 C-terminal 12 aa] | 0.6426 ± 0.00097
DPNGILNPYKYI [DLD2 C-terminal 12 aa] | 0.6117 ± 0.003
DQFQLITQGIYS [PIK1 C-terminal 12 aa] | 0.717 ± 0.099
DQLLALYEDGLL [AHC2 C-terminal 12 aa] | 0.72 ± 0.043
DRVGEVFAKLFG [NNR2 C-terminal 12 aa] | 0.728 ± 0.011
DSERKVLSEALL [KAP114 C-terminal 12 aa] | 0.6846 ± 0.0027

Sequence | protein stability index
DSFFFDVLAQLP [YLR434C C-terminal 12 aa] | 0.686 ± 0.012
DTCKSVLYCSTS [YMR193C-A C-terminal 12 aa] | 0.65 ± 0.0067
DTHTNEIIKKEI [HRQ1 C-terminal 12 aa] | 0.695 ± 0.032
DVFEEIGYSMKD [SAE3 C-terminal 12 aa] | 0.789 ± 0.041
DVHDDVESDDEI [ALF1 C-terminal 12 aa] | 0.7005 ± 0.0059
DVKPQENGNDSS [REG1 C-terminal 12 aa] | 0.705 ± 0.037
DWEAIDAQTIKL [FAT1 C-terminal 12 aa] | 0.768 ± 0.021
DYKKFIEDVLRQ [MLC1 C-terminal 12 aa] | 0.702 ± 0.04
EAELEEDWGMYG [YBR062C C-terminal 12 aa] | 0.7097 ± 0.0017
EANNLLNIIKGN [MRP51 C-terminal 12 aa] | 0.294 ± 0.035
EAQLSRSEVLLV [COS2 C-terminal 12 aa] | 0.6242 ± 0.0027
EAQLTRKQAPPV [COS9 C-terminal 12 aa] | 0.699 ± 0.015
EATYKVLQQLHK [ADE8 C-terminal 12 aa] | 0.7224 ± 0.00099
EAVYELAKMSLA [MYG1 C-terminal 12 aa] | 0.6777 ± 0.0052
ECDGITVPEKLT [MSC6 C-terminal 12 aa] | 0.708 ± 0.011
ECRARKASSNRS [YGR109W-A C-terminal 12 aa] | 0.707 ± 0.024
EDAEKRADEMDD [SRM1 C-terminal 12 aa] | 0.675 ± 0.033
EECYLHSESFGY [FRE7 C-terminal 12 aa] | 0.664 ± 0.028
EEFINKLVKSMN [RPL7A C-terminal 12 aa] | 0.705 ± 0.097
EEIVGRHSDSAT [YAP6 C-terminal 12 aa] | 0.69 ± 0.011
EEKKKKKIAESK [TIM50 C-terminal 12 aa] | 0.64 ± 0.044

Sequence | protein stability index
EELKKLSNPDMN [CUP9 C-terminal 12 aa] | 0.686 ± 0.0076
EETEAQAEPVEA [RPS3 C-terminal 12 aa] | 0.663 ± 0.021
EFEILDAKKEKD [PIM1 C-terminal 12 aa] | 0.681 ± 0.056
EFKCMSVITAQQ [SEH1 C-terminal 12 aa] | 0.687 ± 0.025
EFMKTNTGSKKV [CCR4 C-terminal 12 aa] | 0.677 ± 0.03
EFTDEWFKEHSS [STH1 C-terminal 12 aa] | 0.719 ± 0.0073
EGGDLEYQHVKI [YCR043C C-terminal 12 aa] | 0.682 ± 0.03
EGIFPANYVRVS [YSC84 C-terminal 12 aa] | 0.673 ± 0.0097
EGPRGETIVERF [YJL047C-A C-terminal 12 aa] | 0.6955 ± 0.0027
EGVGCRYPVVLI [YDR467C C-terminal 12 aa] | 0.666 ± 0.019
EHKGSIEAGFTS [CSS2 C-terminal 12 aa] | 0.715 ± 0.025
EHRNIEWEKKTA [POL4 C-terminal 12 aa] | 0.694 ± 0.054
EINSDFIENFEE [MSH4 C-terminal 12 aa] | 0.699 ± 0.046
EKEFTGNSQSEK [NMA111 C-terminal 12 aa] | 0.742 ± 0.039
EKKKNPYWYYQW [GEP3 C-terminal 12 aa] | 0.673 ± 0.025
EKQQRRNMKNAL [RRS1 C-terminal 12 aa] | 0.703 ± 0.01
EKTRKNISKFFS [CPR7 C-terminal 12 aa] | 0.707 ± 0.013
EKVIDGSIEHSS [YNR061C C-terminal 12 aa] | 0.703 ± 0.017
EKVRNEGFIKNP [GPM2 C-terminal 12 aa] | 0.702 ± 0.075
ELANILESDITL [CIN1 C-terminal 12 aa] | 0.712 ± 0.022
ELDEIAASLENL [TPM1 C-terminal 12 aa] | 0.69 ± 0.01

Sequence | protein stability index
ELLCKGICKAAE [HEL1 C-terminal 12 aa] | 0.674 ± 0.017
EMEKNKLKRKRN [YNG2 C-terminal 12 aa] | 0.699 ± 0.014
EMVKKHALNGRI [NRS1 C-terminal 12 aa] | 0.671 ± 0.025
ENKNWSIITPSG [YBL086C C-terminal 12 aa] | 0.684 ± 0.018
EPMESLRSTTKY [PTR2 C-terminal 12 aa] | 0.697 ± 0.01
EPNGYIKNLKWT [RXT3 C-terminal 12 aa] | 0.633 ± 0.034
ERLIQQGYLQKI [PSF1 C-terminal 12 aa] | 0.683 ± 0.035
ERNGWKFFFKEV [YHR137C-A C-terminal 12 aa] | 0.6597 ± 0.0014
ERNKKSRPPIYK [ARL3 C-terminal 12 aa] | 0.735 ± 0.09
ETLAKLREQGLM [TOM70 C-terminal 12 aa] | 0.692 ± 0.015
EVHALNRDHLVA [YHR138C C-terminal 12 aa] | 0.674 ± 0.023
EVLDQLEPQDSS [MCM6 C-terminal 12 aa] | 0.6847 ± 0.0064
EYDDDSGNQGVW [GRE1 C-terminal 12 aa] | 0.739 ± 0.049
EYIVNVNEYGHD [YOL153C C-terminal 12 aa] | 0.678 ± 0.0079
EYSKKYLTTFFQ [YEA6 C-terminal 12 aa] | 0.722 ± 0.03
FAAVSFVLGTGI [NCW1 C-terminal 12 aa] | 0.709 ± 0.017
FAEYNRLSAIPV [LAM1 C-terminal 12 aa] | 0.478 ± 0.02
FAGENFHHGDKL [ENO1 C-terminal 12 aa] | 0.706 ± 0.0078
FCHGAEDAWNIL [EMG1 C-terminal 12 aa] | 0.712 ± 0.012
